In article PMC5705260:

Experiments:
[1] = biological target: ArtB (Salmonella enterica serovar Typhimurium DT104) (UniProt Q404H3); assay: co-purification of co-expressed subunits
[2] = biological target: ArtB (Salmonella enterica serovar Typhimurium DT104) (UniProt Q404H3); assay: ion exchange chromatography + SEC
[3] = biological target: ArtB-His6 (Salmonella enterica serovar Typhimurium DT104) (UniProt Q404H3); assay: crystal structure
[4] = biological target: PltB-His6 (Salmonella Typhi) (UniProt Q8Z6A3); assay: crystal structure

Q: Which stoichiometry N [1] does the source give for “ArtB (from UniProt Q404H3 1-141) (natural protein)” here?
A: Its stoichiometry N is 5.

Q: And the stoichiometry N [2]?
A: The stoichiometry N was 5.

Q: For “ArtB-His6 (from UniProt Q404H3 1-141) (natural protein)”, which stoichiometry N [3] is on record?
A: The stoichiometry N was 5.

Q: How did the stoichiometry N [4] turn out when “PltB-His6 (from UniProt Q8Z6A3 1-137) (natural protein)” was run?
A: The stoichiometry N was 5.
